The target of this series is HuR (ELAVL1) (Homo sapiens, UniProt Q15717 Q15717:1-326). Kind of series: MITOMI; not inhibited by clemizole 0.1 mM, inhibited by ATA. Conditions: tags: C-terminal V5-6xHis; bodipy-Lys labelled; wheat germ extract; ORFeome clone (Open Biosystems); label: Cy3.
Chain of HuR (ELAVL1) (Q15717 whole entry, one chain of several): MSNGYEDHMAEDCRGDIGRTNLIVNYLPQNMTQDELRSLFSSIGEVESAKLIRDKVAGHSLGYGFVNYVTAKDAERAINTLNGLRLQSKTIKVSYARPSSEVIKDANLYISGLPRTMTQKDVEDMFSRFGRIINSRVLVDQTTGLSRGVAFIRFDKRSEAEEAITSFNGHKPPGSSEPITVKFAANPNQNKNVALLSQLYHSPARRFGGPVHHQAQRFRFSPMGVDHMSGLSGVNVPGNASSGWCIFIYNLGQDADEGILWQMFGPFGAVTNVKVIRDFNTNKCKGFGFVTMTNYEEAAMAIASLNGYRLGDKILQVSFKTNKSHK

Description: Binding of HuR to the consensus 4A RNA sequence was tested in the presence of the inhibitory molecules shown to inhibit RNA binding by NS4B.

Consider AUUUAUUUAUUUAUUUA (ssRNA) [4A], for which the binding result is “binds”.

For the origin of these results see patent US20100260717, “METHODS OF […] A […] FAMILY VIRAL INFECTION, COMPOSITIONS FOR […] A […] FAMILY VIRAL INFECTION, AND […] ASSAYS FOR […] COMPOSITIONS FOR […] A […] FAMILY VIRAL INFECTION” (published 2010).
